These results are taken from patent US20180125988A1, “TARGETED XTEN CONJUGATE COMPOSITIONS AND METHODS OF MAKING SAME” (AMUNIX OPERATING INC., priority 2014, published 2018).

Bounds are passed on as bounds.

This assay has as its target HER2 (ErbB2, HER2/neu receptor) on HER2 expressing tumor cell lines (human (human tumor cell lines)) (UniProt P04626). The experiment in a line: cell-based or functional assay.

B1: XTEN432-3xMMAE (protein)
chain: SAGSPTAEAAGCGTAEAAGTSESATPESGPGSEPATSGSETPGTSESATPESGPGTSTEPSEGSAPGTSESATPESGPGSPAGSPTSTEEGSPAGSPTSTEEGSPAGSPTSTEEGTSESATPESGPGTSTEPSEGSAPGTSESATPESGPGSEPATSGSETPGTSESATPESGPGSEPATSGSETPGTSESATPESGPGTSTEPSEGSAPTAEAAGCGTAEAAGSPAGSPTSTEEGTSESATPESGPGSEPATSGSETPGTSESATPESGPGSPAGSPTSTEEGSPAGSPTSTEEGTSTEPSEGSAPGTSESATPESGPGTSESATPESGPGTSESATPESGPGSEPATSGSETPGSEPATSGSETPGSPAGSPTSTEEGTSTEPSEGSAPGTSTEPSEGSAPGSEPATSGSETPTAEAAGCGTAEAASASR
The molecule B1 returned an IC50, CellTiter-Glo cytotoxicity, BT474 cells of more than 300 nM; an IC50, CellTiter-Glo cytotoxicity, HCC1954 cells of more than 300 nM; an IC50, CellTiter-Glo cytotoxicity, NCI-N87 cells of more than 1000 nM; an IC50, CellTiter-Glo cytotoxicity, SK-BR-3 cells of more than 300 nM. The same molecule showed an IC50, CellTiter-Glo cytotoxicity, SK-OV-3 cells of more than 700 nM.

B2: XTEN432-3xDM1 (protein)
chain: SAGSPTAEAAGCGTAEAAGTSESATPESGPGSEPATSGSETPGTSESATPESGPGTSTEPSEGSAPGTSESATPESGPGSPAGSPTSTEEGSPAGSPTSTEEGSPAGSPTSTEEGTSESATPESGPGTSTEPSEGSAPGTSESATPESGPGSEPATSGSETPGTSESATPESGPGSEPATSGSETPGTSESATPESGPGTSTEPSEGSAPTAEAAGCGTAEAAGSPAGSPTSTEEGTSESATPESGPGSEPATSGSETPGTSESATPESGPGSPAGSPTSTEEGSPAGSPTSTEEGTSTEPSEGSAPGTSESATPESGPGTSESATPESGPGTSESATPESGPGSEPATSGSETPGSEPATSGSETPGSPAGSPTSTEEGTSTEPSEGSAPGTSTEPSEGSAPGSEPATSGSETPTAEAAGCGTAEAASASR
For B2, the IC50, CellTiter-Glo cytotoxicity, BT474 cells was more than 1000 nM; the IC50, CellTiter-Glo cytotoxicity, HCC1954 cells is more than 360 nM; the IC50, CellTiter-Glo cytotoxicity, NCI-N87 cells was more than 1000 nM; the IC50, CellTiter-Glo cytotoxicity, SK-BR-3 cells is more than 1000 nM. Also, the IC50, CellTiter-Glo cytotoxicity, SK-OV-3 cells is more than 700 nM.
